For one test, the target named is glucagon receptor (GCGR). Description: cell-based or functional assay.
The target of test [1] is glucagon-like peptide-1 receptor (GLP-1R). Description: cell-based or functional assay.

Experimental findings from patent US20250326814A1, “MODIFIED OXYNTOMODULIN AND METHODS OF USE THEREOF” (OPKO BIOLOGICS LTD., priority 2024, published 2025) are described below.

For the substance “OPK-88003 KPI (SEQ ID NO: 3 where Xaa38=Cys and Xaa39=Cys) (peptide)”, in the test with glucagon receptor (GCGR), the % EC50 compare to KPI (GCGR), with HSA added (KPI + HSA) worked out at 129%; the EC50 (nM) GCGR, glucagon activity in vitro stood at 0.0731 nM; the EC50 [nM] GCGR, CBA potency assay stood at 0.6 nM; the EC50 [nM] GCGR, CBA potency assay, with HSA added (KPI + HSA) came out at 1.06 nM. Further, the EC50 [nM] GCGR, CBA potency assay, without HSA in the test with glucagon receptor (GCGR) was found to be 1.37 nM. In test [1], the % EC50 compare to KPI (GLP1), with HSA added (KPI + HSA) was determined as 107%; the EC50 (nM) GLP-1R, GLP-1 activity in vitro is 0.0168 nM; the EC50 (nM), GLP-1 activity was found to be 0.105 nM; the EC50 [nM] GLP1, CBA potency assay is 0.127 nM. Besides, in test [1], the EC50 [nM] GLP1, CBA potency assay, with HSA added (KPI + HSA) was found to be 0.187 nM and the EC50 [nM] GLP1, CBA potency assay, without HSA stood at 0.201 nM.
As for “Tirzepatide (Mounjaro, Zepbound) (peptide)”, the EC50 (nM), GLP-1 activity in test [1] stood at 0.9 nM.
